Experimental findings from paper PMC7545097, “Mapping the native interaction surfaces of PREP1 with PBX1 by cross-linking mass-spectrometry and mutagenesis” (Scientific Reports, 2020) are described below.

Holding throughout (experiment): time-resolved fluorescence immunoassay (TR-FIA); plate coated with monoclonal anti-PBX1; PBX1 pre-incubated with PREP1 or MEIS1 for 1 h on ice, 10 µg/mL in 1% BSA PBS, 1 h at room temperature on the plate; detected with anti-PREP1 or biotinylated anti-MEIS1/2 and Eu^3+ conjugates; normalised to the wild-type protein taken as 1
What all share (conditions): both partners purified

The target of one test is T1, PBX1 Δ105-113 (human, UniProt P40424 1-430, Δ105-113).
T1 construct: PBX1, residues 1-430, with an internal deletion; source: E. coli, purified
T1 sequence (looked up): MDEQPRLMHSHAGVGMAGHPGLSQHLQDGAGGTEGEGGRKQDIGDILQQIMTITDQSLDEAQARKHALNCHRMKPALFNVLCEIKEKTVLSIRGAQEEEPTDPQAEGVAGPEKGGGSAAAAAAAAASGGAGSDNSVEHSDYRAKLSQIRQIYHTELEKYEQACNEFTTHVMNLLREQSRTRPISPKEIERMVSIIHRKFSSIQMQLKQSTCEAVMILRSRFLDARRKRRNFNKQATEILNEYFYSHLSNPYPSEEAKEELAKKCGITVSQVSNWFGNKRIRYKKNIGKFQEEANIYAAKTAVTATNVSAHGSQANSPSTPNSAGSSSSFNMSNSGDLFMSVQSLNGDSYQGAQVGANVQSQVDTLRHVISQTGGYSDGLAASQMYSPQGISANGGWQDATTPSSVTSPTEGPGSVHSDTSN

A further test concerns the target T2, PREP1 L69A (UniProt P55347 1-436, L69A).
T2 construct: PREP1 (PKNOX1), residues 1-436
T2 sequence (looked up): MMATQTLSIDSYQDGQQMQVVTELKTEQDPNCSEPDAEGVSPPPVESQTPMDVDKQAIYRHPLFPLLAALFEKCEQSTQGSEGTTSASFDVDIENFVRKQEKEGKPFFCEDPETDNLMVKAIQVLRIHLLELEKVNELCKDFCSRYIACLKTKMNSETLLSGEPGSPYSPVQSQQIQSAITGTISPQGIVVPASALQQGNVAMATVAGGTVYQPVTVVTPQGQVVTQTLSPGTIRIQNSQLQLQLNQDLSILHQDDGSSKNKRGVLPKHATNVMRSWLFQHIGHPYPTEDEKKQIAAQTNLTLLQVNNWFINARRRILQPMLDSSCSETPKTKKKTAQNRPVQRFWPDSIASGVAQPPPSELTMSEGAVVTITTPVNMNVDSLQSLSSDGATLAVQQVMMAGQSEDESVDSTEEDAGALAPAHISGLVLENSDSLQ

In the next test the target is T3, PREP1 L70A (UniProt P55347 1-436, L70A).
T3 construct: PREP1 (PKNOX1), residues 1-436
T3 sequence (looked up): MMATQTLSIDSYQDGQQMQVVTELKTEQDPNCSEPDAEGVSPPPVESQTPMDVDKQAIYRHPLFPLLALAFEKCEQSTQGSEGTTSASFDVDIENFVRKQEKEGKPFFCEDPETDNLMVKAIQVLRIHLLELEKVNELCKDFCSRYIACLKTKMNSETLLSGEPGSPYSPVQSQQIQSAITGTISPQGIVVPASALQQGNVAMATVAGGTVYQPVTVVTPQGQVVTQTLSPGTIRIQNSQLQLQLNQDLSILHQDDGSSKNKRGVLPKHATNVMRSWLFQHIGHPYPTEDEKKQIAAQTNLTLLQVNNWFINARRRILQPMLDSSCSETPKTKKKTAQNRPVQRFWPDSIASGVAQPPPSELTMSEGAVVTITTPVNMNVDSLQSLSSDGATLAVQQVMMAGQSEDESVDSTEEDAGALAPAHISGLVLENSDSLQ

In the next test the target is T4, PREP1 L63A (UniProt P55347 1-436, L63A).
T4 construct: PREP1 (PKNOX1), residues 1-436
T4 sequence (looked up): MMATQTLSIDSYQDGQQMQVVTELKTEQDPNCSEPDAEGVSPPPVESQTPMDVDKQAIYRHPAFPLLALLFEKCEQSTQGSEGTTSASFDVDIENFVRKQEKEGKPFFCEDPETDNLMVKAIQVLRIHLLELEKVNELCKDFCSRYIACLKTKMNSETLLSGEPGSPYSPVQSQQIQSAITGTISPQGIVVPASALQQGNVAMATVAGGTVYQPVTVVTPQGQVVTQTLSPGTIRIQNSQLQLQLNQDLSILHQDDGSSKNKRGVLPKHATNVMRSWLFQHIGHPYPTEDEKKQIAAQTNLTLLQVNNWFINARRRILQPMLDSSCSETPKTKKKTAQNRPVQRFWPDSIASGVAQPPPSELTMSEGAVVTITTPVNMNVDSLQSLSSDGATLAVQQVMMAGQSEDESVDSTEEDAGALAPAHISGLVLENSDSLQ

B1: PREP1_(1-436), wild-type recombinant (TR-FIA) (natural protein, UniProt P55347 1-436, looked up)
chain: MMATQTLSIDSYQDGQQMQVVTELKTEQDPNCSEPDAEGVSPPPVESQTPMDVDKQAIYRHPLFPLLALLFEKCEQSTQGSEGTTSASFDVDIENFVRKQEKEGKPFFCEDPETDNLMVKAIQVLRIHLLELEKVNELCKDFCSRYIACLKTKMNSETLLSGEPGSPYSPVQSQQIQSAITGTISPQGIVVPASALQQGNVAMATVAGGTVYQPVTVVTPQGQVVTQTLSPGTIRIQNSQLQLQLNQDLSILHQDDGSSKNKRGVLPKHATNVMRSWLFQHIGHPYPTEDEKKQIAAQTNLTLLQVNNWFINARRRILQPMLDSSCSETPKTKKKTAQNRPVQRFWPDSIASGVAQPPPSELTMSEGAVVTITTPVNMNVDSLQSLSSDGATLAVQQVMMAGQSEDESVDSTEEDAGALAPAHISGLVLENSDSLQ
notes: also called wild-type PREP1; PKNOX1; source: E. coli, purified
With B1, the “binding relative to wild type” value with PBX1 Δ105-113 is 75%.

B2: PBX1_(1-430), wild-type recombinant (natural protein, human, UniProt P40424 1-430, looked up)
chain: MDEQPRLMHSHAGVGMAGHPGLSQHLQDGAGGTEGEGGRKQDIGDILQQIMTITDQSLDEAQARKHALNCHRMKPALFNVLCEIKEKTVLSIRGAQEEEPTDPQLMRLDNMLLAEGVAGPEKGGGSAAAAAAAAASGGAGSDNSVEHSDYRAKLSQIRQIYHTELEKYEQACNEFTTHVMNLLREQSRTRPISPKEIERMVSIIHRKFSSIQMQLKQSTCEAVMILRSRFLDARRKRRNFNKQATEILNEYFYSHLSNPYPSEEAKEELAKKCGITVSQVSNWFGNKRIRYKKNIGKFQEEANIYAAKTAVTATNVSAHGSQANSPSTPNSAGSSSSFNMSNSGDLFMSVQSLNGDSYQGAQVGANVQSQVDTLRHVISQTGGYSDGLAASQMYSPQGISANGGWQDATTPSSVTSPTEGPGSVHSDTSN
notes: also called wild-type PBX1; purified recombinant human PBX1; source: E. coli, purified
With B2, the binding result in the test with PREP1 L69A, with PREP1 L70A and in the test with PREP1 L63A was “binds” each time.
